From patent US20050058639A1 (AstraZeneca / MedImmune, published 2005)
Changes are numbered by the printed parent chain.

T1: recombinant human MCP-2 (human, UniProt P80075 24-99)
T1 construct: also called rhMCP-2
T1 sequence (looked up): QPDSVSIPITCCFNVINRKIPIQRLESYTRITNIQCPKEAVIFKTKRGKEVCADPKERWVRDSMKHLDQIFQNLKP

T2: human MIP-1-alpha (human, UniProt P10147 24-92, limits assumed)
T2 construct: also called hMIP-1-alpha
T2 sequence (looked up): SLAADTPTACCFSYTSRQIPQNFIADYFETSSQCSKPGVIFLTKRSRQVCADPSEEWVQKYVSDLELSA

T3: human RANTES (human, UniProt P13501 24-91)
T3 construct: also called hRANTES
T3 sequence (looked up): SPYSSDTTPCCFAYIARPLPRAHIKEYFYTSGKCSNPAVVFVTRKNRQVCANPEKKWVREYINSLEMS

T4: human GRO/MGSA (human, UniProt P09341 35-107)
T4 construct: also called hGRO/MGSA; GRO-alpha
T4 sequence (looked up): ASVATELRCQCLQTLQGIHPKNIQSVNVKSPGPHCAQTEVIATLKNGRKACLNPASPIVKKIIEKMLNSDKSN

B1: anti-MCP-1 mAb 3.10.1 (antibody, V domains shown)
VH: QVQLVQSGAEVKKPGASVKVSCKVSGYTLTELSMHWVRQAPGKGLEWMGGFDPEDGETIYAQKFQGRVMMTEDTSTDTAFMDLSSLRSEDTAVYYCATDDMLTPHYLYFGMDVWGQGTTVTVSS
VL: DIQMTQSPSSLSASVGDRVTITCRASQGIRNDLGWYQQKPGKAPKRLIYATSSLQSGVPSRFSGSGSGTEFTLTISSLQPEDFATYYCLQHNTYPFTFGPGTKVDIKR
B2: anti-MCP-1 mAb 1.14.1 (antibody, V domains shown)
VH: QVQAEQSGPGLVKPSQTLSLTCAISGDSVSSYSAAWNWIRQSPSRGLEWLGRTYYRSKWYSDHAVSVRSRITIYPDTSKNQFSLQLNSVTPEDTAVYYCARDRISGTYVGMDVWGQGTTVTVSS
VL: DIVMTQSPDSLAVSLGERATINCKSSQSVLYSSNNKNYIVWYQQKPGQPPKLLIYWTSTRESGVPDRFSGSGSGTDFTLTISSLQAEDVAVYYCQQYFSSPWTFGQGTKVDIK
B3: anti-MCP-1 mAb 1.12.1 (antibody, V domains shown)
VH: QVQLVQSGAEVKKPGASVKVSCKVSGYTLTELSMHWVRQAPGKGLEWMGGFDPEDGETIYAQKFQGRVTMTEDTSTDTAYMELSSLRSEDTAVYYCATNDFWSGYYNYWGQGTLVTVSS
VL: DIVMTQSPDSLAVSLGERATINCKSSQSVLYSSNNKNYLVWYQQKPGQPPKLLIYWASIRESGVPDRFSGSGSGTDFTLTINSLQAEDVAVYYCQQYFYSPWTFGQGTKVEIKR
B4: anti-MCP-1 mAb 3.4.1 (antibody, V domains shown)
VH: B3 VH with I59M, N99D, Y106F, N107D
VL: DIVMTQSPDSLAVSLDERATINCKSSQSVLYSPNQKNYLVWYQQKPGQPPKLLLYWASIRESGVPDRFSGSGSGTDFTLTISSLQAEDVAVYYCQQSYFTPWTFGQGTKVEIKR
B5: anti-MCP-1 mAb 1.18.1 (antibody, human IgG2, kappa, V domains shown)
VH: B3 VH with A79V, V93M, N99R, D100E, S103T, Y106F, N107D, Y108H
VL: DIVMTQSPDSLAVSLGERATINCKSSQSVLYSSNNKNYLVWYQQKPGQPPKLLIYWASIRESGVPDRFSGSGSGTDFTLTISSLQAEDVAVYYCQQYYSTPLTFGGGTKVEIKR
B6: anti-MCP-1 mAb 1.13.1 (antibody, V domains shown)
VH: B3 VH with Y27H, G56D, G66D, Y106F, N107D, Y108C
VL: DIVLTQSPDSLAVCLGERATINCKSSQSVLYSPNNKNFLVWYQQRPGQPPKLLIYWASTRESGVPDRFSGSGSGTDFTLTISSLQAEDVAVYYCQQYYSSPWTFGQGTKVEIKR
B7: anti-MCP-1 mAb 1.2.1 (antibody, V domains shown)
VH: B3 VH with L29F, I59S, Q65R, Y80H, Y106F, N107D
VL: DIQMTQSPSSVSASVGDRVTITCRASQGIDIYLAWYQQKPGKAPKLLINAASSLQNGVPSRFGGSGSGTDFTLTISGLQPEDFATYYCQLTYFFPWTFGQGTKVEIKR

target: T5, human monocyte chemo-attractant protein-1 (MCP-1) (human, UniProt P13500 24-99); assay: cell-based or functional assay
T5 sequence (P13500 24-99): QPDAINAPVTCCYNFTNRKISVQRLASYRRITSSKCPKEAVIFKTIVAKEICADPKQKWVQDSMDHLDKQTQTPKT

Row | Binder | IC50 Ca++ Flux [µg/mL] | IC50 Chemotaxis [µg/mL]
1 | B1 | 0.3 | 0.25
2 | B2 | 0.41 | 0.58
3 | B3 | 0.13 | 0.35
4 | B4 | 0.24 | 0.51
5 | B5 | 0.18 | 0.29
6 | B6 | 0.11 | 0.5
7 | B7 | 0.18 | 0.24

target: T5, human monocyte chemo-attractant …; assay: ELISA, hybridoma supernatant on coated MCP-1
Experimental: Selection of candidate antibodies for ELISA. After 14 days of culture, hybridoma supernatants were screened for MCP-1-specific monoclonal antibodies. The ELISA plates (Fisher, Cat. No. 12-565-136) were coated with 50 μl/well of MCP-1 (2 μg/mL) in Coating Buffer (0.1 M Carbonate Buffer, pH 9.6, NaHCO₃8.4 g/L), then incubated at 4° C. overnight. After incubation, the plates were washed with Washing Buffer (0.05% Tween 20 in PBS) three times. 200 μl/well Blocking Buffer (0.5% BSA, 0.1% Tween 20, 0.01% Thimerosal in 1× PBS) were added and the plates incubated at room temperature for 1 hour. After incubation, the plates were washed with Washing Buffer three times. 50 μL/well of hybridoma supernatants, and positive and negative controls were added and the plates incubated at room temperature for 2 hours.
The positive control used throughout was XMG2 MCP-1 Group 1, footpad N160-7 and the negative control was XMG2 KLH Group 1, footpad L627-6. After incubation, the plates were washed three times with Washing Buffer. […] In the secondary screen, three sets of samples (positives in first screening) were screened, one set for hIgG detection, one set for hKappa detection, and one set for hlambda detection. After incubation, the plates were washed three times with Washing Buffer. 100 μL/well of TMB (BioFX Lab. Cat. #TMSK-0100-01) were added and the plates allowed to develop for about 10 minutes (until negative control wells barely started to show color), then 50 μL/well stop solution (TMB Stop Solution (BioFX Lab. Cat. #STPR-0100-01) were added and the plates read on an ELISA plate reader at wavelength 450 nm. The OD readings from the positive wells are presented in Table 9.

Row | Binder | ELISA OD-MCP-1 [OD450]
8 | B1 | 3.63
9 | B2 | 2.06
10 | B3 | 4
11 | B4 | 3.86
12 | B5 | 0.998
13 | B6 | 4
14 | B7 | 3.47

target: T1, recombinant human MCP-2; assay: ELISA, coated antigen
Experimental: (§1) Determining cross-reactivity of anti-MCP-1 antibodies with other chemokines. ELISA plates (Fisher Cat. No. 12-565-136) were coated with 50 μl/well of MCP-1, MCP-2, MCP-3, MCP-4, RANTES, GRO-alpha, MIP-1 alpha, eotaxin, rat MCP-1 and mouse JE (2 μg/ml) in coating buffer (0.1 M carbonate buffer, pH 9.6, NaHCO₃ 8.4 g/L, then incubated at 4° C. overnight. After incubation, the plates were washed with washing buffer (0.05% Tween 20 in PBS) three times. 200 μL/well blocking buffer (0.5% BSA, 0.1% Tween 20, 0.01% Thimerosal in 1×PBS) were added and the plates incubated at room temperature for 1 hour. After incubation, the plates were washed with washing buffer three times. 50 μL/well of hybridoma supernatants, and positive and negative controls (positive control was anti-MCP-1 antibody purchased from R&D Sciences, and negative control was an antibody to Keyhole Limpet Hemocyanin produced at Abgenix) were added and the plates incubated at room temperature for 2 hours. After incubation, the plates were washed three times with washing buffer. […] After incubation, the plates were washed three times with washing buffer and 100 μL/well of TMB (BioFX Lab. Cat. #TMSK-0 100-01) was added and the plates allowed to develop for about 10 minutes.

Row | Binder | ELISA OD [OD450]
15 | B1 | 0.845
16 | B2 | 0.042
17 | B3 | 0.042
18 | B4 | 0.042
19 | B5 | 0.04
20 | B6 | 0.046
21 | B7 | 0.056

target: rat MCP-1 (rat, UniProt P14844 24-148); assay: ELISA, coated antigen
Experimental: as §1

rat MCP-1, sequence (P14844 24-148 limits assumed): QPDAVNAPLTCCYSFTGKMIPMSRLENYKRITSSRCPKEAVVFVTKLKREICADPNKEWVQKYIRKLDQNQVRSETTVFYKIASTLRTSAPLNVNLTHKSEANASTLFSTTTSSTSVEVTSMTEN

Row | Binder | ELISA OD [OD450]
22 | B1 | 0.045
23 | B2 | 0.062
24 | B3 | 0.062
25 | B4 | 0.053
26 | B5 | 0.058
27 | B6 | 0.06
28 | B7 | 0.044

target: T5, human monocyte chemo-attractant …; assay: ELISA, coated antigen
Experimental: as §1

Row | Binder | ELISA OD [OD450]
29 | B1 | 0.71
30 | B2 | 1.13
31 | B3 | 0.933
32 | B4 | 1.15
33 | B5 | 1.23
34 | B6 | 1.16
35 | B7 | 1.16

target: T6, recombinant human MCP-4 (human, UniProt Q99616 24-98, limits assumed); assay: ELISA, coated antigen
T6 construct: also called rhMCP-4
Experimental: as §1

T6 sequence (Q99616 24-98 limits assumed): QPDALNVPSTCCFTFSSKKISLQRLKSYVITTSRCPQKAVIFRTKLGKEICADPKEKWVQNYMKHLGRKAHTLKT

Row | Binder | ELISA OD [OD450]
36 | B1 | 0.042
37 | B2 | 0.044
38 | B3 | 0.044
39 | B4 | 0.047
40 | B5 | 0.045
41 | B6 | 0.045
42 | B7 | 0.055

target: T7, recombinant human MCP-3 (human, UniProt P80098 24-99); assay: ELISA, coated antigen
T7 construct: also called rhMCP-3
Experimental: as §1

T7 sequence (P80098 24-99 limits assumed): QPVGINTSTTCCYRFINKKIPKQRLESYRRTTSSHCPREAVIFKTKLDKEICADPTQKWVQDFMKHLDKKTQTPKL

Row | Binder | ELISA OD [OD450]
43 | B1 | 0.167
44 | B2 | 0.046
45 | B3 | 0.046
46 | B4 | 0.05
47 | B5 | 0.045
48 | B6 | 0.047
49 | B7 | 0.048

target: T8, human eotaxin (human, UniProt P51671 24-97); assay: ELISA, coated antigen
T8 construct: also called hEotaxin
Experimental: as §1

T8 sequence (P51671 24-97 limits assumed): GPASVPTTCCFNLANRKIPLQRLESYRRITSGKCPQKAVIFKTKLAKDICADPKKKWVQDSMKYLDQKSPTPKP

Row | Binder | ELISA OD [OD450]
50 | B1 | 0.306
51 | B2 | 0.042
52 | B3 | 0.044
53 | B4 | 0.048
54 | B5 | 0.043
55 | B6 | 0.044
56 | B7 | 0.044

target: T2, human MIP-1-alpha; assay: ELISA, coated antigen
Experimental: as §1

Row | Binder | ELISA OD [OD450]
57 | B1 | 0.043
58 | B2 | 0.046
59 | B3 | 0.046
60 | B4 | 0.055
61 | B5 | 0.043
62 | B6 | 0.042
63 | B7 | 0.04

target: T9, recombinant mouse JE/MCP-1 (mouse, UniProt P10148 24-148); assay: ELISA, coated antigen
T9 construct: also called rmJE/MCP-1
Experimental: as §1

T9 sequence (P10148 24-148 limits assumed): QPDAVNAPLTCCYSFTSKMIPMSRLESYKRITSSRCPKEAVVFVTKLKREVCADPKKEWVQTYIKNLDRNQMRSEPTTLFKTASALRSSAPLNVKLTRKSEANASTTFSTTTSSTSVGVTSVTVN

Row | Binder | ELISA OD [OD450]
64 | B1 | 0.054
65 | B2 | 0.042
66 | B3 | 0.042
67 | B4 | 0.044
68 | B5 | 0.044
69 | B6 | 0.043
70 | B7 | 0.041

target: T3, human RANTES; assay: ELISA, coated antigen
Experimental: as §1

Row | Binder | ELISA OD [OD450]
71 | B1 | 0.04
72 | B2 | 0.046
73 | B3 | 0.046
74 | B4 | 0.046
75 | B5 | 0.04
76 | B6 | 0.046
77 | B7 | 0.04

target: T4, human GRO/MGSA; assay: ELISA, coated antigen
Experimental: as §1

Row | Binder | ELISA OD [OD450]
78 | B1 | 0.042
79 | B2 | 0.046
80 | B3 | 0.046
81 | B4 | 0.065
82 | B5 | 0.049
83 | B6 | 0.046
84 | B7 | 0.044
